Values joined by “and” are separate entries in the source; they are usually repeats but may differ in a detail not shown here. Identical values can stand only once.
Assays:
[1] = molecular target: T1, human C1q (human, UniProt P02745 23-245; P02746 28-253; P02747 29-245); assay: one-sided ELISA on human C1q, detection with enzyme-tagged anti-human-Fc or anti-human kappa antibody
T1 construct: The three entries are precursors with signal peptides; in the hemolysis and deposition assays it is the C1q of human serum; also called complement factor C1q
T1 sequence (P02745 23-245 limits assumed, chain 1 of 3): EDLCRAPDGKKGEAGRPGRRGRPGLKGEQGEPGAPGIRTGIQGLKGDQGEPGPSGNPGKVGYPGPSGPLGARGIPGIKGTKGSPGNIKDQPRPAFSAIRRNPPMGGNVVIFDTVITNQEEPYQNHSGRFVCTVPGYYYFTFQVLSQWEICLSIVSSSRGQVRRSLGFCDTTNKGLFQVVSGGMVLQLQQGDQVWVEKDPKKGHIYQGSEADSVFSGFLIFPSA
T1 sequence (P02746 28-253 limits assumed, chain 2 of 3): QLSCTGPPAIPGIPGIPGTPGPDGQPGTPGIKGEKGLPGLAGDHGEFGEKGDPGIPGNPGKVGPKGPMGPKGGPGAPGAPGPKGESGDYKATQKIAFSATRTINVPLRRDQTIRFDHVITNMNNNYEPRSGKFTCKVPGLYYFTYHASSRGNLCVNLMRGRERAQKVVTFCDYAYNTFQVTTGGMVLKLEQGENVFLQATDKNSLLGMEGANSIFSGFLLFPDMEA
T1 sequence (P02747 29-245 limits assumed, chain 3 of 3): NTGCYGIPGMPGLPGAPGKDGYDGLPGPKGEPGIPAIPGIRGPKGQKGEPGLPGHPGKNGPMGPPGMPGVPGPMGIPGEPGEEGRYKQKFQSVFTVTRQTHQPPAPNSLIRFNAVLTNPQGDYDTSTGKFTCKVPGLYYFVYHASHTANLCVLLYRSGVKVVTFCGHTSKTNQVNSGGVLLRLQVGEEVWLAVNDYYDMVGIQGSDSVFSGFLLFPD
Description: Binding of Mab2-Fab, FabA and Mab2 to human C1q in a one-sided ELISA. Bound antibody or Fab molecules were detected using an enzyme-tagged anti-human-Fc or anti-human kappa antibody followed by enzyme substrate.

[2] = molecular target: T1, human C1q; assay: cell-based or functional assay
[3] = molecular target: C1q (Native C1q is a hexamer of A-B-C heterotrimers (18 chains); one chain of each kind is given. The collagen-like regions carry hydroxyproline and hydroxylysine.); assay: cell-based or functional assay
C1q (Native C1q is a hexamer of A-B-C heterotrimers (18 chains); one chain of each kind is given. The collagen-like regions carry hydroxyproline and hydroxylysine.), sequence (A chain, as listed by the source limits assumed, form in doubt, chain 1 of 3): as the sequence (P02745 23-245 limits assumed, chain 1 of 3) above
C1q (Native C1q is a hexamer of A-B-C heterotrimers (18 chains); one chain of each kind is given. The collagen-like regions carry hydroxyproline and hydroxylysine.), sequence (B chain, as listed by the source limits assumed, form in doubt, chain 2 of 3): as the sequence (P02746 28-253 limits assumed, chain 2 of 3) above
C1q (Native C1q is a hexamer of A-B-C heterotrimers (18 chains); one chain of each kind is given. The collagen-like regions carry hydroxyproline and hydroxylysine.), sequence (C chain, as listed by the source limits assumed, form in doubt, chain 3 of 3): as the sequence (P02747 29-245 limits assumed, chain 3 of 3) above

B1: FabA (Fab)
heavy: QVQLVQSGAELKKPGASVKVSCKSSGYHFTSYWMHWVKQAPGQGLEWIGVIHPNSGSINYNEKFESRVTITVDKSTSTAYMELSSLRSEDTAVYYCAGERDSTEVLPMDYWGQGTTVTVSSASTKGPSVFPLAPSSKSTSGGTAALGCLVKDYFPEPVTVSWNSGALTSGVHTFPAVLQSSGLYSLSSVVTVPSSSLGTQTYICNVNHKPSNTKVDKKVEPKSCDKTHT
light: DVQITQSPSSLSASLGERATINCRASKSINKYLAWYQQKPGKAPKLLIYSGSTLQSGIPARFSGSGSGTDFTLTISSLEPEDFAMYYCQQHNEYPLTFGQGTKLEIKRTVAAPSVFIFPPSDEQLKSGTASVVCLLNNFYPREAKVQWKVDNALQSGNSQESVTEQDSKDSTYSLSSTLTLSKADYEKHKVYACEVTHQGLSSPVTKSFNRGEC
notes: Recombinant humanized IgG1 Fab; also called anti-C1q Fab; anti-C1q antibody Fab fragment
EC50 [1]: 2.5 ng/mL | half maximal inhibitory concentration (IC50) of inhibition of IgM-coated RBC hemolysis in human serum [2]: 0.62 µg/mL and ~12 nM | IC50 of inhibition of the classical pathway (IgM-coated wells, C5b-9 detection, Weislab ELISA kit) [3]: ≤ 300 ng/mL
